The record followed here is the RNAGym collection of RNA variant scans (doi:10.7554/elife.80360).

To fix the notation:
B1: HDV Ribozyme (parent)
chain: GGCCGGCAUGGUCCCAGCCUCCUCGCUGGCGCCGGCUGGGCAACAUUCCGAGGGGACCGUCCCCUCGGUAAUGGCGAAUGGGACCCA

This data set covers variants of B1. Nature of the data set: self-cleavage, relative activity (ratio to wild type); higher = more cleavage; co-transcriptional.
With G10U G38U, the self-cleavage was 0.0625.
The same measure for G10U C19A: 0.0946.
Consider U9G G67A, for which the self-cleavage worked out at 0.88.
As for G10C G25U, the figure is 0.0941; as for G10U G50U, 0.796.
As to G10C A77G, the self-cleavage came to 0.458.
As for G10A C44A, the figure is 0.321; as for U9G C36A, 0.401.
The same measure for U9G C36U: 0.864.
As for G10U C84A, the figure is 0.519.
With G10U C26A, the self-cleavage was 0.678.
Regarding G11C C63U, the self-cleavage came out at 0.264.
The same measure for G10U U60G: 0.724; for G10U U60C: 0.767; for G10U G40A: 0.745.
On to G11A C85G, for which the self-cleavage turned out to be 0.678.
As for G11A U27A, the figure is 0.815; as for G11A U27C, 0.447; as for G11A G40U, 0.458.
As to G11A G40A, the self-cleavage worked out at 0.582.
With G11A A16U, the self-cleavage came to 0.723.
As for G10U G76C, the self-cleavage stood at 0.963.
The same measure for G10U G76A: 0.652; for G10C C75U: 0.109.
The same measure for G10A G39C: 0.182; for G11C C26A: 0.462.
Regarding G11C C26G, the self-cleavage turned out to be 0.95.
Take G11A U37C: the self-cleavage stood at 0.381.
On to G11A U37A, for which the self-cleavage came to 0.0567.
As for G10U G54C, the figure is 0.831.
G10A C19U: the self-cleavage was found to be 0.0326.
The same measure for G10C U20G: 0.151; for G10C U20C: 0.0739.
As for G11C G31A, the figure is 0.0804; as for G10U A83C, 0.181.
Regarding G10U A56C, the self-cleavage worked out at 0.878.
As for G11C C14U, the figure is 0.285; as for G10C A78C, 0.185; as for G10C A78U, 0.222.
With G10A C84G, the self-cleavage was found to be 0.591.
In the case of G10A C84A, the self-cleavage was 0.562.
As for G10U G55C, the figure is 0.831; as for G11A A77G, 0.208; as for G11A A77C, 0.0898.
The same measure for G10A A83C: 0.287; for G10A A83U: 0.322.
As for G10C A87G, the figure is 0.887.
In the case of G10C A87C, the self-cleavage was determined as 1.17.
The same measure for G11A A56C: 0.298; for G11C C86A: 0.489; for G10A G31A: 0.203.
Turning to G11C A70C, the self-cleavage is 0.32.
The same measure for G11C A70G: 0.0692; for G10C U27C: 0.942.
Consider U9G G29C, for which the self-cleavage was determined as 0.
For U9G G29A, the self-cleavage turned out to be 0.123.
For the variant G10U A16C, the self-cleavage worked out at 0.906.
The same measure for G10U A16G: 0.618; for G10A C75U: 0.0992; for G10A C75A: 0.0898.
As to U9G G50U, the self-cleavage was 1.15.
The same measure for G11A A43G: 0.0791; for G11C A51G: 0.297; for G10A C63A: 0.76.
Regarding U9G C26U, the self-cleavage turned out to be 0.554.
For G10C G54U, the self-cleavage is 0.897.
The same measure for G10U U65C: 0.831; for U9G G40U: 1.06; for G10U C57G: 0.587.
As for G10U C33U, the figure is 0.466; as for G10U C33A, 0.113.
In the case of U9G G68U, the self-cleavage was found to be 0.782.
The same measure for G11C C75U: 0.185; for G11C A45G: 0.249.
The same measure for G10C A16G: 0.453.
As for G11C C49U, the figure is 0.332; as for U9G C61U, 1.05.
On to G10A C49G, for which the self-cleavage came out at 0.46.
As for G10A G54U, the figure is 0.84; as for G10A G54C, 0.582; as for U9G U46C, 0.748.
As for G11C C30U, the figure is 0.0604; as for G11C C30G, 0; as for U9G C44A, 0.415.
G10A U20C: the self-cleavage came to 0.0234.
As for G11A U60A, the figure is 0.356; as for G10A U27C, 0.759; as for U9G C63G, 1.17.
Regarding G10A G73A, the self-cleavage was 0.175.
The same measure for U9G G55A: 0.962.
As for G11A G25A, the figure is 0.0755.
With G11C C13A, the self-cleavage is 0.142.
In the case of G10A A51U, the self-cleavage was determined as 0.923.
G11A G80U: the self-cleavage is 0.0839.
The same measure for G11C C66A: 0.285.
On to G11C C66G, for which the self-cleavage was 0.383.
As for G10U C22U, the figure is 0.188; as for G10A G50C, 0.513; as for G11C G28C, 0.
As for G11C G28U, the figure is 0.0268.
Consider G10U G17C, for which the self-cleavage came to 0.359.
As for G10C U12A, the figure is 0.123; as for G10C G55A, 1.11.
The same measure for G10A G34U: 0.257; for G10A G34A: 0.164.
The same measure for G11C C64G: 0.514; for G11C C61G: 0.217; for G11C C61A: 0.185.
For G11C C61U, the self-cleavage amounted to 0.157.
As for G11A C62G, the figure is 0.437; as for G11A A87C, 0.521.
The same measure for G10A C30G: 0.0777.
As for G10C G67C, the figure is 1.01; as for G10C G67A, 0.712; as for G10A G67C, 0.599.
Regarding G10A G67U, the self-cleavage turned out to be 0.767.
Consider G10U C48A, for which the self-cleavage is 0.698.
As for U9G G39A, the figure is 0.475; as for G10U C41U, 0.583; as for G10U C41A, 0.892.
The same measure for G10C G40A: 0.95.
For the variant G11A G50A, the self-cleavage worked out at 0.366.
As for G11A G50C, the self-cleavage stood at 0.439.
As for G11A G50U, the self-cleavage was found to be 0.283.
As for G10U U47G, the figure is 0.63; as for G10A C48U, 0.895.
On to U9G C41U, for which the self-cleavage was found to be 0.997.
The same measure for U9G C41A: 0.831; for G10U C75U: 0.0678.
In the case of U9G C86U, the self-cleavage came to 1.42.
In the case of U9G C86G, the self-cleavage was 1.33.
The same measure for G10U G73C: 0.0831; for G10U G73U: 0.0639; for G11A C14A: 0.148.
The same measure for G11A C14U: 0.277; for G10U A71U: 0.639.
With G10U A71G, the self-cleavage is 0.799.
As for G11A G39A, the figure is 0.0936.
Take U9G U79A: the self-cleavage turned out to be 0.68.
On to G10C C58A, for which the self-cleavage stood at 0.886.
As for G11A G38U, the figure is 0.
Take G10C A56U: the self-cleavage turned out to be 0.957.
In the case of G10C A56G, the self-cleavage is 0.532.
As for G11A G74C, the self-cleavage was 0.0723.
On to G11A G54U, for which the self-cleavage was found to be 0.391.
As for G11A G54A, the figure is 0.371; as for G11A G54C, 0.479.
Take G10A U65G: the self-cleavage amounted to 0.767.
G10C C86A: the self-cleavage was 1.04.
As for G11C C36U, the figure is 0.136; as for G11C C36G, 0.148.
The same measure for G10C C49G: 0.453.
As for G10U C32U, the figure is 0.546; as for U9G G35C, 0.0639; as for G10C A70C, 0.923.
For G10C C63U, the self-cleavage worked out at 1.03.
As for G10A C57A, the figure is 0.727.
The same measure for G10A C57G: 0.912; for G10U G82U: 0.248; for G10U G82C: 0.089.
Turning to G10A C36G, the self-cleavage came to 0.101.
The same measure for G11A G76C: 0.796; for G10C G34U: 0.175; for G10C G34A: 0.166.
Regarding G10C G17C, the self-cleavage turned out to be 0.208.
The same measure for G10C G17A: 0.804; for G10U A87G: 0.704.
